In publication PMC3383723:

Molecular target: T1, Vps41-TAP (yeast), P38959
T1 chain: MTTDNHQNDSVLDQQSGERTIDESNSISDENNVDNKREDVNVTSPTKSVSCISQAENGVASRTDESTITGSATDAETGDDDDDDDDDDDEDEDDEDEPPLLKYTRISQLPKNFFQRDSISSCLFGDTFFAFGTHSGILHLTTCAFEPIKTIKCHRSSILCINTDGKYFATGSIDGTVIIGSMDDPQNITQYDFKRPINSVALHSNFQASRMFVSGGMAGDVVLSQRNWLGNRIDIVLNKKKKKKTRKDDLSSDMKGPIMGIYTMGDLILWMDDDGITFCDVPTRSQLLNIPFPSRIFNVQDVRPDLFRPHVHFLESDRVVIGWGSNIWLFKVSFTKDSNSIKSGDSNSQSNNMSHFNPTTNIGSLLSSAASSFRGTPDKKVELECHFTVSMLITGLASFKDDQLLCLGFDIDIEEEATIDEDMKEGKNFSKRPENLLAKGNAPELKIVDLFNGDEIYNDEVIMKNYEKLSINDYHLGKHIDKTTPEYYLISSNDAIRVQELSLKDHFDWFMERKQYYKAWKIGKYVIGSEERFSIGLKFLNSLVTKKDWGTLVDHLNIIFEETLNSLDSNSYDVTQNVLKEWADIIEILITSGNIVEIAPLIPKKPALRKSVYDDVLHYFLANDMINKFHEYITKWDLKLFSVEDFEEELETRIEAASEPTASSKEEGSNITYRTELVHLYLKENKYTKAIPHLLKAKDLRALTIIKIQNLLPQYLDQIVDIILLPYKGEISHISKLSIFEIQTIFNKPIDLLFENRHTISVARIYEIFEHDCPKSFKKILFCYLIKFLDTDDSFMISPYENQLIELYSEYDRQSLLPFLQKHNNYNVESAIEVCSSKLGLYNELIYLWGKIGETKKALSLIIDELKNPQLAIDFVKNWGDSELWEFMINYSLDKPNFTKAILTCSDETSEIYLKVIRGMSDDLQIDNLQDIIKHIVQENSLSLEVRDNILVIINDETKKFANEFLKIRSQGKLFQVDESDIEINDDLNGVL
Assay: co-IP
Details: remark: other sources report otherwise

B1: Vps39, Q07468 1-1049 (natural protein)
chain: MLRAQKLHSLKSSDITAILPTEQSQKLVLAKKNGDVEVYSRDGNTLKLFQVYPDLLQNAKNDPLPPVIENFYFANELSTIFAQCKETLILLSTTNLHEYDRIIDRRGINHCWLFERSHKNKEEKNTYLIYSTINTAKMRVLIWEGRTYKNMMEASLSYRKETIRSIYPGETGITLATDLGIYHWPYNKPSLIRIEKTVKNKFPKDMISALTELKEQAEKVIEKKPKKNSHFDAQSFSSMDRMSRKSSMSSLWYRTIRNERGNKIRYTFELDGNDATPMIIDGATKKIFKVELMHNNEEPFLIATDHATFSESNSEFDHMQYLSSNLLMLYNSSTIKFVDYENGFTFLQQKIPEGIKWVKNLSGTYFLVWTSNDEVQLFSYHVDDGSEDDDQESICGDINDPDFYQLWRKVLFYKFFIDSPHSKELCVSDNPEESLDICAMKLRDLTVMWCLRIFDKFQNYMVQLERSRNSRMIRSKCEEMIIKSIFDLFIKFWAPPQLVILKVFPSAISSLVLEITGQEHHCLLKEAEEVKETYDIPPHLLNRWCLPYLTDTRRHLQNLLSKENDDESRITWCYRDREIKQSFDFFLISNHDDVDLNTMLTLIDTVLFKCYLYYNPPMVGPFIRVENHCDSHVIVTELKIRHMFKDLIDFYYKRGNHEEALKFLTDLVDELENDNTDQKQRQKIDHGVKILVIYYLKKLSNPQLDVIFTYTDWLLNRHNDSIKEILSSIFFYDSQACSSRDHLKVYGYIKKFDKLLAIQYLEFAISTFRLEGNKLHTVLIKLYLENLDIPSTRIKLKSLLETTSVYEPRTILKLLNDAIESGSDQLPTNQLNFVKYLKIFPLSKLENHKEAVHILLDEIDDYKAATSYCNDVYQSDSTKGEELLLYLYSKLVSIYDSNRNSKLILNFLQDHGSKLNSAEIYKNLPQDISLYDIGRVVSQLLKKHTSKMDETRLEKALLQVELVATTYKLNERMSSYGVLSDSHKCPICKKVISNFGTDSISWFTREGRNIITHYNCGKVLQERFNAKNEKSSRIKQKTLGEVINELNNK
B1 was tested, and the co-precipitation efficiency relative to that of Vps41-HA was 2 fold.
